For orientation: Kd means the constant that tells how readily two partners part at equilibrium.

This experiment has as its target α4 laminin fragment G^919-1207 (SEQ ID NO:13) (human), Q16363. Briefly: solid-phase saturation binding ELISA: coated G^919-1207 at varying concentrations, soluble integrin at 5 ng/µl, detected with LM609. A general note: ELISA stands for enzyme-linked immunosorbent assay.

α4 laminin fragment G^919-1207 (SEQ ID NO:13) (human), Q16363, sequence (Q16363 926-1214 G1117S/P1119X limits assumed): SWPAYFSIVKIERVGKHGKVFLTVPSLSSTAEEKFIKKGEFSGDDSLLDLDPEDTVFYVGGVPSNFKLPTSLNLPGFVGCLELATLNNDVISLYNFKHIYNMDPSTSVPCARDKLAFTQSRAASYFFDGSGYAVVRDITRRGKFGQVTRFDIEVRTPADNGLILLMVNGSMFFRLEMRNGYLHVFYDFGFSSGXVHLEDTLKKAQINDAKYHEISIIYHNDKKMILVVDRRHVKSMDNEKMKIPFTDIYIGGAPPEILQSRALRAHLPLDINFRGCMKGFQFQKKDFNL

B1: soluble αvβ3 integrin heterodimer (Chemicon International), P06756 31-992; P05106 27-718 (receptor)
chain 1: FNLDVDSPAEYSGPEGSYFGFAVDFFVPSASSRMFLLVGAPKANTTQPGIVEGGQVLKCDWSSTRRCQPIEFDATGNRDYAKDDPLEFKSHQWFGASVRSKQDKILACAPLYHWRTEMKQEREPVGTCFLQDGTKTVEYAPCRSQDIDADGQGFCQGGFSIDFTKADRVLLGGPGSFYWQGQLISDQVAEIVSKYDPNVYSIKYNNQLATRTAQAIFDDSYLGYSVAVGDFNGDGIDDFVSGVPRAARTLGMVYIYDGKNMSSLYNFTGEQMAAYFGFSVAATDINGDDYADVFIGAPLFMDRGSDGKLQEVGQVSVSLQRASGDFQTTKLNGFEVFARFGSAIAPLGDLDQDGFNDIAIAAPYGGEDKKGIVYIFNGRSTGLNAVPSQILEGQWAARSMPPSFGYSMKGATDIDKNGYPDLIVGAFGVDRAILYRARPVITVNAGLEVYPSILNQDNKTCSLPGTALKVSCFNVRFCLKADGKGVLPRKLNFQVELLLDKLKQKGAIRRALFLYSRSPSHSKNMTISRGGLMQCEELIAYLRDESEFRDKLTPITIFMEYRLDYRTAADTTGLQPILNQFTPANISRQAHILLDCGEDNVCKPKLEVSVDSDQKKIYIGDDNPLTLIVKAQNQGEGAYEAELIVSIPLQADFIGVVRNNEALARLSCAFKTENQTRQVVCDLGNPMKAGTQLLAGLRFSVHQQSEMDTSVKFDLQIQSSNLFDKVSPVVSHKVDLAVLAAVEIRGVSSPDHVFLPIPNWEHKENPETEEDVGPVVQHIYELRNNGPSSFSKAMLHLQWPYKYNNNTLLYILHYDIDGPMNCTSDMEINPLRIKISSLQTTEKNDTVAGQGERDHLITKRDLALSEGDIHTLGCGVAQCLKIVCQVGRLDRGKSAILYVKSLLWTETFMNKENQNHSYSLKSSASFNVIEFPYKNLPIEDITNSTLVTTNVTWGIQPAPMPV
chain 2: GPNICTTRGVSSCQQCLAVSPMCAWCSDEALPLGSPRCDLKENLLKDNCAPESIEFPVSEARVLEDRPLSDKGSGDSSQVTQVSPQRIALRLRPDDSKNFSIQVRQVEDYPVDIYYLMDLSYSMKDDLWSIQNLGTKLATQMRKLTSNLRIGFGAFVDKPVSPYMYISPPEALENPCYDMKTTCLPMFGYKHVLTLTDQVTRFNEEVKKQSVSRNRDAPEGGFDAIMQATVCDEKIGWRNDASHLLVFTTDAKTHIALDGRLAGIVQPNDGQCHVGSDNHYSASTTMDYPSLGLMTEKLSQKNINLIFAVTENVVNLYQNYSELIPGTTVGVLSMDSSNVLQLIVDAYGKIRSKVELEVRDLPEELSLSFNATCLNNEVIPGLKSCMGLKIGDTVSFSIEAKVRGCPQEKEKSFTIKPVGFKDSLIVQVTFDCDCACQAQAEPNSHRCNNGNGTFECGVCRCGPGWLGSQCECSEEDYRPSQQDECSPREGQPVCSQRGECLCGQCVCHSSDFGKITGKYCECDDFSCVRYKGEMCSGHGQCSCGDCLCDSDWTGYYCNCTTRTDTCMSSNGLLCSGRGKCECGSCVCIQPGSYGDTCEKCPTCPDACTFKKECVECKKFDRGALHDENTCNRYCRDEIESVKELKDTGKDAVNCTYKNEDDCVVRFQYYEDSSGKSILYVVEEPECPKGPD
On to B1, for which the Kd was 4 nM.

(Values after patent publication US20030103975A1.)
